Laboratory results taken from paper PMC10396304.

What was measured:
[1] = target: AoLadC, LOV-activated diguanylate cyclase from Aquella oligotrophica (Aquella oligotrophica); assay: SEC-MALS; Superdex 200 Increase 10/300 GL in storage buffer, 500-1000 ug protein, illuminated state (blue light 465 nm for 1 min before loading and during the whole run); miniDAWN MALS detector
[2] = target: AoLadC, LOV-activated diguanylate cyclase from Aquella oligotrophica (Aquella oligotrophica); assay: SEC-MALS; Superdex 200 Increase 10/300 GL in storage buffer, 500-1000 ug protein, dark-adapted state (non-actinic light); miniDAWN MALS detector
[3] = target: SfLadC, LOV-activated diguanylate cyclase from Serratia fonticola AU-AP2C (Serratia fonticola AU-AP2C); assay: SEC-MALS; Superdex 200 Increase 10/300 GL in storage buffer, 500-1000 ug protein, illuminated state (blue light 465 nm for 1 min before loading and during the whole run); miniDAWN MALS detector
[4] = target: SfLadC, LOV-activated diguanylate cyclase from Serratia fonticola AU-AP2C (Serratia fonticola AU-AP2C); assay: SEC-MALS; Superdex 200 Increase 10/300 GL in storage buffer, 500-1000 ug protein, dark-adapted state (non-actinic light); miniDAWN MALS detector
[5] = target: DpLadC, LOV-activated diguanylate cyclase from Deinococcus peraridilitoris DSM 19664 (Deinococcus peraridilitoris DSM 19664); assay: SEC-MALS; Superdex 200 Increase 10/300 GL in storage buffer, 500-1000 ug protein, illuminated state (blue light 465 nm for 1 min before loading and during the whole run); miniDAWN MALS detector
[6] = target: DpLadC, LOV-activated diguanylate cyclase from Deinococcus peraridilitoris DSM 19664 (Deinococcus peraridilitoris DSM 19664); assay: SEC-MALS; Superdex 200 Increase 10/300 GL in storage buffer, 500-1000 ug protein, dark-adapted state (non-actinic light); miniDAWN MALS detector
[7] = target: MsLadC, LOV-activated diguanylate cyclase from Methylotenera sp. (Methylotenera sp.); assay: SEC-MALS; Superdex 200 Increase 10/300 GL in storage buffer, 500-1000 ug protein, illuminated state (blue light 465 nm for 1 min before loading and during the whole run); miniDAWN MALS detector
[8] = target: MsLadC, LOV-activated diguanylate cyclase from Methylotenera sp. (Methylotenera sp.); assay: SAXS; steady-state light-adapted sample (blue light 465 nm), BM29 ESRF, 20°C in the capillary, MsLadC 0.8 mg/ml, NT-AoLadC 0.9 mg/ml; molecular weight from Porod volume and volume of correlation
[9] = target: MsLadC, LOV-activated diguanylate cyclase from Methylotenera sp. (Methylotenera sp.); assay: SEC-MALS; Superdex 200 Increase 10/300 GL in storage buffer, 500-1000 ug protein, dark-adapted state (non-actinic light); miniDAWN MALS detector
[10] = target: MsLadC, LOV-activated diguanylate cyclase from Methylotenera sp. (Methylotenera sp.); assay: SAXS; steady-state dark-adapted sample, BM29 ESRF, 20°C in the capillary, MsLadC 0.8 mg/ml, NT-AoLadC 0.9 mg/ml; molecular weight from Porod volume and volume of correlation

In the case of “AoLadC, LOV-activated diguanylate cyclase from Aquella oligotrophica (enzyme)”, the stoichiometry N [1] was 2 and the stoichiometry N [2] was 2.

“SfLadC, LOV-activated diguanylate cyclase from Serratia fonticola AU-AP2C (enzyme)” showed a stoichiometry N [3] of 2 and a stoichiometry N [4] of 2.

“DpLadC, LOV-activated diguanylate cyclase from Deinococcus peraridilitoris DSM 19664 (enzyme)” showed a stoichiometry N [5] of 2 and a stoichiometry N [6] of 2.

“MsLadC, LOV-activated diguanylate cyclase from Methylotenera sp. (enzyme)” gave a stoichiometry N [7] of 2, a stoichiometry N [8] of 2 and a stoichiometry N [9] of 2. It also gave a stoichiometry N [10] of 2.
